Experimental data published in PMC8265735 (Biopolymers, 2021).
Where two headings read alike, the source gives them in different places.

Experiments:
SAXS [1] = molecular target: the molecule itself; test: SAXS
SAXS [2] = molecular target: the molecule itself; test: SAXS; remark: listed apart in the source

B1: Hemoglobin III (HbIII) from Lucina pectinata, oxy form (natural protein, Lucina pectinata (Phacoides pectinatus), UniProt P41262 1-153, looked up)
chain: MSSGLTGPQKAALKSSWSRFMDNAVTNGTNFYMDLFKAYPDTLTPFKSLFEDVSFNQMTDHPTMKAQALVFCDGMSSFVDNLDDHEVLVVLLQKMAKLHFNRGIRIKELRDGYGVLLRYLEDHCHVEGSTKNAWEDFIAYICRVQGDFMKERL
With B1 the “stoichiometry N” value (SAXS [1]) was 2 and the “stoichiometry N” value (SAXS [2]) was 4.
